{"source": "paper PMC5344419", "about": "“The structure of FKBP38 in complex with the MEEVD tetratricopeptide binding-motif of Hsp90” (PLoS ONE, 2017)", "binders": {"B1": {"name": "Yeast C-terminal fragment of Hsp90 (yHsp90^546-709) (domain or fragment)", "chain": "not shown", "notes": "Expressed from pRSETA as a His-tagged fusion; also called C-terminal domain of yeast Hsp90"}, "B2": {"name": "Hsp90α^464-732, C-terminal domain of human Hsp90α (domain or fragment)", "chain": "not shown", "notes": "Hsp90α, human, residues 464-732 (C-terminal domain); Expressed from p2E as a PreScission cleavable His-tagged fusion; also called C-terminal domain of Hsp90α"}, "B3": {"name": "Hsp90β EDASRMEEVD C-terminal peptide (peptide)", "peptide": "EDASRMEEVD", "notes": "the terminal ten amino-acid residues of Hsp90β"}, "B4": {"name": "FKBP8 (FKBP^1-380), amino acids 1-380, lacking the C-terminal trans-membrane helix (domain or fragment, UniProt Q14318 1-380, looked up)", "chain": "MASCAEPSEPSAPLPAGVPPLEDFEVLDGVEDAEGEEEEEEEEEEEDDLSELPPLEDMGQPPAEEAEQPGALAREFLAAMEPEPAPAPAPEEWLDILGNGLLRKKTLVPGPPGSSRPVKGQVVTVHLQTSLENGTRVQEEPELVFTLGDCDVIQALDLSVPLMDVGETAMVTADSKYCYGPQGRSPYIPPHAALCLEVTLKTAVDGPDLEMLTGQERVALANRKRECGNAHYQRADFVLAANSYDLAIKAITSSAKVDMTFEEEAQLLQLKVKCLNNLAASQLKLDHYRAALRSCSLVLEHQPDNIKALFRKGKVLAQQGEYSEAIPILRAALKLEPSNKTIHAELSKLVKKHAAQRSTETALYRKMLGNPSRLPAKCPG", "notes": "FKBP8, amino acids 1-380, lacking the C-terminal trans-membrane helix; numbers count on full-length FKBP8 (Arg 184 is Arg 127 in FKBP38 numbering); Non-cleavable C-terminal His6 tag from pDMXV4; also called FKBP8 isoform; not shown: His6, C-terminal, kept"}, "B5": {"name": "FKBP38 isoform (FKBP^92-380), immunophilin and TPR domain (domain or fragment, UniProt Q14318 92-380, looked up)", "chain": "EWLDILGNGLLRKKTLVPGPPGSSRPVKGQVVTVHLQTSLENGTRVQEEPELVFTLGDCDVIQALDLSVPLMDVGETAMVTADSKYCYGPQGRSPYIPPHAALCLEVTLKTAVDGPDLEMLTGQERVALANRKRECGNAHYQRADFVLAANSYDLAIKAITSSAKVDMTFEEEAQLLQLKVKCLNNLAASQLKLDHYRAALRSCSLVLEHQPDNIKALFRKGKVLAQQGEYSEAIPILRAALKLEPSNKTIHAELSKLVKKHAAQRSTETALYRKMLGNPSRLPAKCPG", "notes": "FKBP8, fragment 92-380 containing both the immunophilin (PPIase) and TPR domain; numbers count on full-length FKBP8; also called FKBP8^92-380; not shown: His6 (from the vector pDMXV4), C-terminal, kept"}}, "settings_in_all_cases": "both partners purified", "key": {"[1]": {"target": "B4", "test": "ITC; 700 to 800 μM FKBP construct injected into 50 μM Hsp90 or Hsp70 protein in the cell; ITC200; 20 mM Tris, 300 mM NaCl, 1 mM EDTA pH 7.5"}, "[2]": {"target": "B4", "test": "ITC; 2 mM peptide injected into 50 μM FKBP^1-380 in the cell; ITC200; 20 mM Tris, 300 mM NaCl, 1 mM EDTA pH 7.5"}, "[3]": {"target": "T1, Hsp90β^295-724, middle and C-terminal domain fragment of human Hsp90β (human, UniProt P08238 295-724)", "T1 construct": "Hsp90β, human, residues 295-724 (middle and C-terminal domain, with the MEEVD motif); Expressed from pRSETA as a His-tagged fusion; also called Hsp90^295-724", "T1 sequence (P08238 295-724)": "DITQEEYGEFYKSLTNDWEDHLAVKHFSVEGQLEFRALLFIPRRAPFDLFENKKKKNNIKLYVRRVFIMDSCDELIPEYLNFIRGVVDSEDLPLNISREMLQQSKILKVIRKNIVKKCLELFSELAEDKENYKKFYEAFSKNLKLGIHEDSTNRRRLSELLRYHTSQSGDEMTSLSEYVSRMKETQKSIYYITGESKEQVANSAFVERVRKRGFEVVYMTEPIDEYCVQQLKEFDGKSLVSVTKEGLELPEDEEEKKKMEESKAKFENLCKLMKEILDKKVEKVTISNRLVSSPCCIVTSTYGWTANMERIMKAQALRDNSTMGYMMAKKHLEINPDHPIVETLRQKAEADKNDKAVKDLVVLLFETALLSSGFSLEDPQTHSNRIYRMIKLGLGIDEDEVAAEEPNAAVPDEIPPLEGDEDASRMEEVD", "test": "ITC; 700 to 800 μM FKBP construct injected into 50 μM Hsp90 or Hsp70 protein in the cell; ITC200; 20 mM Tris, 300 mM NaCl, 1 mM EDTA pH 7.5"}, "[4]": {"target": "T2, Full-length human Hsp90β (human, UniProt P08238 1-724)", "T2 construct": "Hsp90β, human, full length; Expressed from pRSETA as a His-tagged fusion; also called intact Hsp90β", "T2 sequence (P08238 whole entry, the tested form may be a part)": "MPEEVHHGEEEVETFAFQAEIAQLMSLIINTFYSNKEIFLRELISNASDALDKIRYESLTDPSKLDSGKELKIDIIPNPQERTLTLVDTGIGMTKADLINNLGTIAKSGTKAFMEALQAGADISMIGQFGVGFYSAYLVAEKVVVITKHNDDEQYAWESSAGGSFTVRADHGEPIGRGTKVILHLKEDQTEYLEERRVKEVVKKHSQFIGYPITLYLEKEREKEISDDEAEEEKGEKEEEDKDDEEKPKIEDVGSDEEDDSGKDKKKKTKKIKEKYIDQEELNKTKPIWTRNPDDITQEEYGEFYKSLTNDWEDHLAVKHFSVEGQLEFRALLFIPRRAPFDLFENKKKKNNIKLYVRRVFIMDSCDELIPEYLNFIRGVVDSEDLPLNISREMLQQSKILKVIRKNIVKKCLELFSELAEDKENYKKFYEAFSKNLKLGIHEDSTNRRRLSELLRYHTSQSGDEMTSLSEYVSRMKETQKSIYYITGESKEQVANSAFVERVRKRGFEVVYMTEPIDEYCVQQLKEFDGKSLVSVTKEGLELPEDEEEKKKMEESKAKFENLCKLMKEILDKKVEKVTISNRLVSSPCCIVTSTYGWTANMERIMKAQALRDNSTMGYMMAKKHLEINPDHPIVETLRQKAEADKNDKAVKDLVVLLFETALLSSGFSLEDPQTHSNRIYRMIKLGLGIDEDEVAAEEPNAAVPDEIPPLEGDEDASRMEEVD", "test": "ITC; 700 to 800 μM FKBP construct injected into 50 μM Hsp90 or Hsp70 protein in the cell; ITC200; 20 mM Tris, 300 mM NaCl, 1 mM EDTA pH 7.5"}}, "data": [{"binder": "B1", "values": [{"measurement": "Kd", "setting": "[1]", "value": "2.3 ± 0.2", "unit": "µM"}]}, {"binder": "B2", "values": [{"measurement": "Kd", "setting": "[1]", "value": "8.3 ± 0.6", "unit": "µM"}]}, {"binder": "GSGPTIEEVD (C-terminal peptide of human Hsp70)", "note": "[Human Hsp70 GSGPTIEEVD C-terminal peptide]", "values": [{"measurement": "Kd", "setting": "[2]", "value": 147, "unit": "µM"}]}, {"binder": "B3", "values": [{"measurement": "Kd", "setting": "[2]", "value": "64.5 ± 3.7", "unit": "µM"}]}, {"binder": "B4", "values": [{"measurement": "Kd", "setting": "[3]", "value": "6.4 ± 0.5", "unit": "µM"}, {"measurement": "Kd", "setting": "[4]", "value": "2.8 ± 0.1", "unit": "µM"}, {"measurement": "stoichiometry N", "setting": "[4]", "value": 1}]}, {"binder": "B5", "values": [{"measurement": "Kd", "setting": "[4]", "value": "2.6 ± 0.2", "unit": "µM"}, {"measurement": "stoichiometry N", "setting": "[4]", "value": 1}]}]}
